# Laboratory results: the MegaScale stability set (Tsuboyama et al. 2023)
# B1: EEHEE_rd3_0130 (parent)
# chain: TKIIVNGKTFTAPTEEEAQKIAEKLAKKAGLTVHKKNGTFELK
# Variants of: B1
# Assay: folding stability dG (cDNA display proteolysis); higher = more stable
# Settings: PBS, room temperature
row,Variant,folding stability dG [kJ/mol]
1,TKIIVNGKTFTAPTEELAQKIAEKLAKKAGLTVHKKNGTFELK [E17L],5.23
2,TKIIVNGKTFTAPTEENAQKIAEKLAKKAGLTVHKKNGTFELK [E17N],0.268
3,TKIIVNGKTFTAPTEETAQKIAEKLAKKAGLTVHKKNGTFELK [E17T],2.2
4,TKIIVNGKTFTAPTEEKAQKIAEKLAKKAGLTVHKKNGTFELK [E17K],3.01
5,TKIIVNGKTFTAPTEESAQKIAEKLAKKAGLTVHKKNGTFELK [E17S],2.66
6,TKIIVNGKTFTAPTEEFAQKIAEKLAKKAGLTVHKKNGTFELK [E17F],2.61
7,TKIIVNGKTFTAPTEEVAQKIAEKLAKKAGLTVHKKNGTFELK [E17V],3.86
8,TKIIVNGKTFTAPTEERAQKIAEKLAKKAGLTVHKKNGTFELK [E17R],2.83
9,TKIIVNGKTFTAPTEEAAQKIAEKLAKKAGLTVHKKNGTFELK [E17A],4.17
10,TKIIVNGKTFTAPTEEGAQKIAEKLAKKAGLTVHKKNGTFELK [E17G],1.1
11,TKIIVNGKTFTAPTEEHAQKIAEKLAKKAGLTVHKKNGTFELK [E17H],2.37
12,TKIIVNGKTFTAPTEEQAQKIAEKLAKKAGLTVHKKNGTFELK [E17Q],3.83
13,TKIIVNGKTFTAPTEEPAQKIAEKLAKKAGLTVHKKNGTFELK [E17P],-3.32
14,TKIIVNGKTFTAPTEECAQKIAEKLAKKAGLTVHKKNGTFELK [E17C],6.1
15,TKIIVNGKTFTAPTEEWAQKIAEKLAKKAGLTVHKKNGTFELK [E17W],3.86
16,TKIIVNGKTFTAPTEEDAQKIAEKLAKKAGLTVHKKNGTFELK [E17D],2.36
17,TKIIVNGKTFTAPTEEMAQKIAEKLAKKAGLTVHKKNGTFELK [E17M],4.97
18,TKIIVNGKTFTAPTEEIAQKIAEKLAKKAGLTVHKKNGTFELK [E17I],5.55
19,TKIIVNGKTFTAPTEEYAQKIAEKLAKKAGLTVHKKNGTFELK [E17Y],2.57
20,TKIIVNGKTFTAPTEEEWQKIAEKLAKKAGLTVHKKNGTFELK [A18W],-1.67
21,TKIIVNGKTFTAPTEEEQQKIAEKLAKKAGLTVHKKNGTFELK [A18Q],-2.99
22,TKIIVNGKTFTAPTEEETQKIAEKLAKKAGLTVHKKNGTFELK [A18T],-2.85
23,TKIIVNGKTFTAPTEEELQKIAEKLAKKAGLTVHKKNGTFELK [A18L],-1.2
24,TKIIVNGKTFTAPTEEEEQKIAEKLAKKAGLTVHKKNGTFELK [A18E],-3.1

row,Variant,folding stability dG [kJ/mol]
1,TKIIVNGKTFTAPTEEEKQKIAEKLAKKAGLTVHKKNGTFELK [A18K],-3.98
2,TKIIVNGKTFTAPTEEEYQKIAEKLAKKAGLTVHKKNGTFELK [A18Y],-3.61
3,TKIIVNGKTFTAPTEEECQKIAEKLAKKAGLTVHKKNGTFELK [A18C],2.35
4,TKIIVNGKTFTAPTEEEFQKIAEKLAKKAGLTVHKKNGTFELK [A18F],-1.54
5,TKIIVNGKTFTAPTEEEIQKIAEKLAKKAGLTVHKKNGTFELK [A18I],-1.48
6,TKIIVNGKTFTAPTEEERQKIAEKLAKKAGLTVHKKNGTFELK [A18R],-2.38
7,TKIIVNGKTFTAPTEEEMQKIAEKLAKKAGLTVHKKNGTFELK [A18M],-1.55
8,TKIIVNGKTFTAPTEEEDQKIAEKLAKKAGLTVHKKNGTFELK [A18D],-2.84
9,TKIIVNGKTFTAPTEEENQKIAEKLAKKAGLTVHKKNGTFELK [A18N],-3.92
10,TKIIVNGKTFTAPTEEESQKIAEKLAKKAGLTVHKKNGTFELK [A18S],-2.9
11,TKIIVNGKTFTAPTEEEGQKIAEKLAKKAGLTVHKKNGTFELK [A18G],1.57
12,TKIIVNGKTFTAPTEEEVQKIAEKLAKKAGLTVHKKNGTFELK [A18V],-2.45
13,TKIIVNGKTFTAPTEEEAIKIAEKLAKKAGLTVHKKNGTFELK [Q19I],2.78
14,TKIIVNGKTFTAPTEEEANKIAEKLAKKAGLTVHKKNGTFELK [Q19N],1.6
15,TKIIVNGKTFTAPTEEEAAKIAEKLAKKAGLTVHKKNGTFELK [Q19A],3.45
16,TKIIVNGKTFTAPTEEEAKKIAEKLAKKAGLTVHKKNGTFELK [Q19K],3.3
17,TKIIVNGKTFTAPTEEEAFKIAEKLAKKAGLTVHKKNGTFELK [Q19F],4.01
18,TKIIVNGKTFTAPTEEEAMKIAEKLAKKAGLTVHKKNGTFELK [Q19M],3.65
19,TKIIVNGKTFTAPTEEEALKIAEKLAKKAGLTVHKKNGTFELK [Q19L],4.07
20,TKIIVNGKTFTAPTEEEATKIAEKLAKKAGLTVHKKNGTFELK [Q19T],1.59
21,TKIIVNGKTFTAPTEEEADKIAEKLAKKAGLTVHKKNGTFELK [Q19D],-0.201
22,TKIIVNGKTFTAPTEEEAPKIAEKLAKKAGLTVHKKNGTFELK [Q19P],-1.96
23,TKIIVNGKTFTAPTEEEARKIAEKLAKKAGLTVHKKNGTFELK [Q19R],4.35
24,TKIIVNGKTFTAPTEEEAVKIAEKLAKKAGLTVHKKNGTFELK [Q19V],1.91

row,Variant,folding stability dG [kJ/mol]
1,TKIIVNGKTFTAPTEEEAGKIAEKLAKKAGLTVHKKNGTFELK [Q19G],1.49
2,TKIIVNGKTFTAPTEEEASKIAEKLAKKAGLTVHKKNGTFELK [Q19S],3.09
3,TKIIVNGKTFTAPTEEEAEKIAEKLAKKAGLTVHKKNGTFELK [Q19E],3.82
4,TKIIVNGKTFTAPTEEEAYKIAEKLAKKAGLTVHKKNGTFELK [Q19Y],4.31
5,TKIIVNGKTFTAPTEEEAHKIAEKLAKKAGLTVHKKNGTFELK [Q19H],2.54
6,TKIIVNGKTFTAPTEEEACKIAEKLAKKAGLTVHKKNGTFELK [Q19C],5.23
7,TKIIVNGKTFTAPTEEEAWKIAEKLAKKAGLTVHKKNGTFELK [Q19W],4.7
8,TKIIVNGKTFTAPTEIEAQKIAEKLAKKAGLTVHKKNGTFELK [E16I],3.03
9,TKIIVNGKTFTAPTEAEAQKIAEKLAKKAGLTVHKKNGTFELK [E16A],3.81
10,TKIIVNGKTFTAPTESEAQKIAEKLAKKAGLTVHKKNGTFELK [E16S],3.33
11,TKIIVNGKTFTAPTECEAQKIAEKLAKKAGLTVHKKNGTFELK [E16C],3.72
12,TKIIVNGKTFTAPTEWEAQKIAEKLAKKAGLTVHKKNGTFELK [E16W],3.9
13,TKIIVNGKTFTAPTEPEAQKIAEKLAKKAGLTVHKKNGTFELK [E16P],0.255
14,TKIIVNGKTFTAPTEKEAQKIAEKLAKKAGLTVHKKNGTFELK [E16K],3.16
15,TKIIVNGKTFTAPTENEAQKIAEKLAKKAGLTVHKKNGTFELK [E16N],1.97
16,TKIIVNGKTFTAPTEHEAQKIAEKLAKKAGLTVHKKNGTFELK [E16H],3.13
17,TKIIVNGKTFTAPTEMEAQKIAEKLAKKAGLTVHKKNGTFELK [E16M],3.44
18,TKIIVNGKTFTAPTEGEAQKIAEKLAKKAGLTVHKKNGTFELK [E16G],2.32
19,TKIIVNGKTFTAPTETEAQKIAEKLAKKAGLTVHKKNGTFELK [E16T],2.72
20,TKIIVNGKTFTAPTEDEAQKIAEKLAKKAGLTVHKKNGTFELK [E16D],2.56
21,TKIIVNGKTFTAPTELEAQKIAEKLAKKAGLTVHKKNGTFELK [E16L],3.02
22,TKIIVNGKTFTAPTEYEAQKIAEKLAKKAGLTVHKKNGTFELK [E16Y],3.61
23,TKIIVNGKTFTAPTEVEAQKIAEKLAKKAGLTVHKKNGTFELK [E16V],2.4
24,TKIIVNGKTFTAPTEQEAQKIAEKLAKKAGLTVHKKNGTFELK [E16Q],3.46

row,Variant,folding stability dG [kJ/mol]
1,TKIIVNGKTFTAPTEFEAQKIAEKLAKKAGLTVHKKNGTFELK [E16F],3.2
2,TKIIVNGKTFTAPTEREAQKIAEKLAKKAGLTVHKKNGTFELK [E16R],3.73
3,TKIIVNGKTFTAPVEEEAQKIAEKLAKKAGLTVHKKNGTFELK [T14V],-1.66
4,TKIIVNGKTFTAPPEEEAQKIAEKLAKKAGLTVHKKNGTFELK [T14P],-2.05
5,TKIIVNGKTFTAPYEEEAQKIAEKLAKKAGLTVHKKNGTFELK [T14Y],-1.75
6,TKIIVNGKTFTAPSEEEAQKIAEKLAKKAGLTVHKKNGTFELK [T14S],3.6
7,TKIIVNGKTFTAPREEEAQKIAEKLAKKAGLTVHKKNGTFELK [T14R],-1.75
8,TKIIVNGKTFTAPNEEEAQKIAEKLAKKAGLTVHKKNGTFELK [T14N],3.75
9,TKIIVNGKTFTAPQEEEAQKIAEKLAKKAGLTVHKKNGTFELK [T14Q],-1.24
10,TKIIVNGKTFTAPMEEEAQKIAEKLAKKAGLTVHKKNGTFELK [T14M],-0.946
11,TKIIVNGKTFTAPWEEEAQKIAEKLAKKAGLTVHKKNGTFELK [T14W],0.226
12,TKIIVNGKTFTAPTVEEAQKIAEKLAKKAGLTVHKKNGTFELK [E15V],3.54
13,TKIIVNGKTFTAPTQEEAQKIAEKLAKKAGLTVHKKNGTFELK [E15Q],2.41
14,TKIIVNGKTFTAPTIEEAQKIAEKLAKKAGLTVHKKNGTFELK [E15I],2.88
15,TKIIVNGKTFTAPTPEEAQKIAEKLAKKAGLTVHKKNGTFELK [E15P],3.08
16,TKIIVNGKTFTAPTSEEAQKIAEKLAKKAGLTVHKKNGTFELK [E15S],2.35
17,TKIIVNGKTFTAPTMEEAQKIAEKLAKKAGLTVHKKNGTFELK [E15M],4.16
18,TKIIVNGKTFTAPTCEEAQKIAEKLAKKAGLTVHKKNGTFELK [E15C],4.46
19,TKIIVNGKTFTAPTFEEAQKIAEKLAKKAGLTVHKKNGTFELK [E15F],4.2
20,TKIIVNGKTFTAPTLEEAQKIAEKLAKKAGLTVHKKNGTFELK [E15L],4.16
21,TKIIVNGKTFTAPTDEEAQKIAEKLAKKAGLTVHKKNGTFELK [E15D],1.36
22,TKIIVNGKTFTAPTAEEAQKIAEKLAKKAGLTVHKKNGTFELK [E15A],3.03
23,TKIIVNGKTFTAPTWEEAQKIAEKLAKKAGLTVHKKNGTFELK [E15W],4.04
24,TKIIVNGKTFTAPTREEAQKIAEKLAKKAGLTVHKKNGTFELK [E15R],1.53

row,Variant,folding stability dG [kJ/mol]
1,TKIIVNGKTFTAPTHEEAQKIAEKLAKKAGLTVHKKNGTFELK [E15H],2.28
2,TKIIVNGKTFTAPTKEEAQKIAEKLAKKAGLTVHKKNGTFELK [E15K],1.5
3,TKIIVNGKTFTAPTGEEAQKIAEKLAKKAGLTVHKKNGTFELK [E15G],0.787
4,TKIIVNGKTFTAPTYEEAQKIAEKLAKKAGLTVHKKNGTFELK [E15Y],5.95
5,TKIIVNGKTFTAPTNEEAQKIAEKLAKKAGLTVHKKNGTFELK [E15N],1.3
6,TKIIVNGKTFTAPTTEEAQKIAEKLAKKAGLTVHKKNGTFELK [E15T],1.84
7,TKIIVNGKTFTAPTEEEAQNIAEKLAKKAGLTVHKKNGTFELK [K20N],2.29
8,TKIIVNGKTFTAPTEEEAQPIAEKLAKKAGLTVHKKNGTFELK [K20P],-1.58
9,TKIIVNGKTFTAPTEEEAQRIAEKLAKKAGLTVHKKNGTFELK [K20R],4.23
10,TKIIVNGKTFTAPTEEEAQGIAEKLAKKAGLTVHKKNGTFELK [K20G],0.51
11,TKIIVNGKTFTAPTEEEAQTIAEKLAKKAGLTVHKKNGTFELK [K20T],2.35
12,TKIIVNGKTFTAPTEEEAQFIAEKLAKKAGLTVHKKNGTFELK [K20F],3.21
13,TKIIVNGKTFTAPTEEEAQLIAEKLAKKAGLTVHKKNGTFELK [K20L],3.28
14,TKIIVNGKTFTAPTEEEAQIIAEKLAKKAGLTVHKKNGTFELK [K20I],3.5
15,TKIIVNGKTFTAPTEEEAQAIAEKLAKKAGLTVHKKNGTFELK [K20A],3.43
16,TKIIVNGKTFTAPTEEEAQVIAEKLAKKAGLTVHKKNGTFELK [K20V],3.03
17,TKIIVNGKTFTAPTEEEAQHIAEKLAKKAGLTVHKKNGTFELK [K20H],2.5
18,TKIIVNGKTFTAPTEEEAQMIAEKLAKKAGLTVHKKNGTFELK [K20M],3.57
19,TKIIVNGKTFTAPTEEEAQSIAEKLAKKAGLTVHKKNGTFELK [K20S],2.88
20,TKIIVNGKTFTAPTEEEAQDIAEKLAKKAGLTVHKKNGTFELK [K20D],2.25
21,TKIIVNGKTFTAPTEEEAQQIAEKLAKKAGLTVHKKNGTFELK [K20Q],3.02
22,TKIIVNGKTFTAPTEEEAQEIAEKLAKKAGLTVHKKNGTFELK [K20E],2.77
